Assay: yeast display, Sf9 membrane polyspecificity reagent, FACS + sequencing; frameworks hold sequencing errors
Method in brief: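 Galactose induction of a Saccharomyces cerevisiae BJ5465 synthetic nanobody display library ran 36–48 hours. The cells were then stained for 1 hour at 4 °C with 10% biotinylated, detergent-solubilized Sf9 membrane reagent, pulled down on streptavidin microbeads and FACS-sorted into low and high (top ~1%) gates on expression and reagent-binding fluorescence. Labels for polyreactivity follow the gate of origin.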

Row | Sequence | polyreactivity (PSR sort gate)
1 | QVQLVESGGGLVQAGGSLRLSCAASGFTFDKYAMGRYRQAPGKERDLDAGITRSGSTYYADSVKGRFTISRDNAKNTVYLQMNSLKPEDTAVYYCKARPRGSYNRPNYPRYYYCGQGTQVTVSS | high polyreactivity
2 | QVQLVESGGGLVQAGGSLRLSCAASGFTFDNYAMGWYRQAPGKERELVAAINWSGGRTYYADSVKGRFTISRDNAKNTVYLQMNSLKPEDTAVYYCAVPGYVRMDYWGQGTQVTVSS | high polyreactivity
3 | QVQLVESGGGLVQAGGSLRLSCAASGFTFDNYAMGWYRQAPGKERELVAAISSGGGRTYYADSVKGRFTISRDNAKNTVYLLMNSLKPEDTAVYYCAAVTLYKRYDYWGQGTQVTVSS | high polyreactivity
4 | QVQLVESGGGLVQAGGSLRLSCAASGFTFDNYVMGWYRQAPGKERELVAAISKSGTSTYYADSVKGRFTISRDNAKNTVYLQMNSLKPEDTAVYYCAAALPGYGDYYYWGQGTQVTVSS | high polyreactivity
5 | QVQLVESGGGLVQAGGSLRLSCAASGFTFDSNAMGRYRQAPGKERELVAANSTGGSTYYADSVKGRFTISRDNAKNTVYLQMNSLKPEDTAVYYCARDPPYPDTWYGYWGQGTQVTVSS | low polyreactivity
6 | QVQLVESGGGLVQAGGSLRLSCAASGFTFDSYAMGWYRQAPGKERELVAAISYRGGTTYYADSVKGRFTISRDNAKNTVYLQMNSLKPEDTAVYYCATPYKYVTGEDYWGQGTQVTVSS | high polyreactivity
7 | QVQLVESGGGLVQAGGSLRLSCAASGFTFDTNAMGWYRLAPGKERELVAAISRIGGRPYADSVKGRFTISRDNAKNTVYLQMNSLKPEDTAVYYGAADTTGYPYGYDSWGQGTQVTVSS | low polyreactivity
8 | QVQLVESGGGLVQAGGSLRLSCAASGFTFDWYAMGWYTQAPGKERELVAAITTSGGTTYYADSVKGRFTISRDNSKNNVYLKMISLKPEDPAVYFCAADYYYWYPVEKYDYCGQGTQVTVSS | low polyreactivity
9 | QVQLVESGGGLVQAGGSLRLSCAASGFTFDYNAMGWSRQAPGKERELVAAISYSDDSTYYADSVKGRFTISRDNAKNTVYLQMNSLKPEETAVYYCAAYFGAYGYDYWGQGSQVTVSS | low polyreactivity
10 | QVQLVESGGGLVQAGGSLRLSCAASGFTFDYNAMGWYRQAPGKERELVAAISASGGSTYYADSVKGRFTISRDTAKNTVYLQMNSLKPEDTAVYYCAAKRFSPQHRYDHWGQGTQVTVSS | high polyreactivity
11 | QVQLVESGGGLVQAGGSLRLSCAASGFTFDYNAMGWYRQAPGKERELVAAISASGGSTYYADSVKGRYTISRDTAKNTVYLQMNSLKPEYTAVYYCAAKRFSPQHRYDHWGQGTQVTVSS | high polyreactivity
12 | QVQLVESGGGLVQAGGSLRLSCAASGFTFDYNAMGWYRQAPGKERELVAAISNTGDSTYYADSVKGRFTISRDNAKNTVYLQMNSLKPEDTAVYYCAADSLFYDYWEYDYWGQGTQVTVSS | low polyreactivity
13 | QVQLVESGGGLVQAGGSLRLSCAASGFTFDYYAMGWYRQAPGKERELVAAINWSGAITYYADSVKGRFTISRDNAKNTVYLQMNSLKPEDTAVYYCAARWGKFYGRFYWGMDYWGQGTQVTVSS | high polyreactivity
14 | QVQLVESGGGLVQAGGSLRLSCAASGFTFDYYAMGWYRQAPGKERELVAAITSGSITYYADSVKGRFTISRDNAKNTVYLQMNSLKPEDTAVYSCAAVGLVRYGYWGQGTQVTVSS | high polyreactivity
15 | QVQLVESGGGLVQAGGSLRLSCAASGFTFDYYTMGWYRQAPGKEREFVAAITWNGGTTNYADSVKGRCTISRDNAKNTVYLQMNSLKPEDTALYYCADTAYWYFSNDSGRSYDYWGQGTQVTVSS | low polyreactivity
16 | QVQLVESGGGLVQAGGSLRLSCAASGFTFEDNTMGGYRQAPGKERELVAAITWGGVSTYYADSVKGRFTISRDNAKKTVYLQMNSLKPEDTAVYYCARDYDVYTVFLMDYWGQGTQVTVSS | low polyreactivity
17 | QVQLVESGGGLVQAGGSLRLSCAASGFTFEKYAMGWYRQAPGKERELVAAISQSAGSTYADSVKGRFTISRDNAKNTVYLQMNSLKPEDTAVYYFAARYRYPYYARYGYWGQGTQVTVSS | high polyreactivity
18 | QVQLVESGGGLVQAGGSLRLSCAASGFTFENYAMGWYRQAPGKEREFVAAISTRGTSTYYADSVKGRFTISRDNAKNTVYLQMNSLKPEDTAVYYCAARFYYWGQGTQVTVSS | high polyreactivity
19 | QVQLVESGGGLVQAGGSLRLSCAASGFTFERYAMGWYRQAPGKERELVAAIDWRGVNTYYADSVKGRFTISRDNAKNTVYLQMNSLKPEDTAVYYCAATRPATYASYDYWGQGTQLTVSS | high polyreactivity
20 | QVQLVESGGGLVQAGGSLRLSCAASGFTFEWYTMGWYRQAPGKERELVADISGDGSTYYADSVKGRFTISRDNAKNTVYLQMNSLKPEDTAVYYCAASFWGIAMGYWAQGTQVTVSS | high polyreactivity
21 | QVQLVESGGGLVQAGGSLRLSCAASGFTFFAYTMGWYRQAPWKERELVAAISWSGAGTYYADSVKGRFTISRDNAKNTVYLQMNSLKPEDTAVYYCNGVPYSGFDYWGQGTQVTVSS | high polyreactivity
22 | QVQLVESGGGLVQAGGSLRLSCAASGFTFFFYAMGWYRQAPGKEREFVAATSWIGGGTYYADSVKGRFTISRDNAKNTVYLLMNSLKPEDTAVYYCATDLASYAVGSKYGYWGQGTQVTVSS | low polyreactivity

Row | Sequence | polyreactivity (PSR sort gate)
23 | QVQLVESGGGLVQAGGSLRLSCAASGFTFFNYAMGWYRQAPGKERELVAAISRSGGGTYYADSVKGRFTISRDNAKNTDYLQMNSLKPEDTAVYYCNKRGTHGYTYRKFDYWGQGTQVTVSS | high polyreactivity
24 | QVQLVESGGGLVQAGGSLRLSCAASGFTFFPYAMGWYRQAPGKERELVATITRGGSTNYADSVKGRFTISRDNAKNSVYLQMNSLKPEDTAVYYCNIDKKTPTFDYWGQGTQVTVSS | low polyreactivity
25 | QVQLVESGGGLVQAGGSLRLSCAASGFTFFSNAMGWYIQAPGKERELVAAITSSGGSTYADSVKGRFTISRDNAKNTVYLQMNSLKPEDTAVYYCAADAQAPPGGFKEYDYWGQGTQVTVSS | low polyreactivity
26 | QVQLVESGGGLVQAGGSLRLSCAASGFTFFWYTMGWYRQAPGKERELVAAISDTGGSTYYADSVKGRFTISRDNAKNTVYLQMNSLKPEDTAVYYCAAQYVRYGHYYWGQGTQVTVSS | high polyreactivity
27 | QVQLVESGGGLVQAGGSLRLSCAASGFTFFYNAMGWYRQAPGKEREFVAAISGRGGRTYYADSVKGRFTISRDNAKNTVYLQMNSLKPEDTAVYYCNADYYPYGEYDYWGQGTQVTVSS | high polyreactivity
28 | QVQLVESGGGLVQAGGSLRLSCAASGFTFFYYAMGWYRQAPGKERELVARISSSGGRTYYADSVKGRFTISRDNAKNTVYLQMNSLKPEDTAVYYCNARYYYYYTRYDYWGQGTQVTVSS | high polyreactivity
29 | QVQLVESGGGLVQAGGSLRLSCAASGFTFGAYAMGWYRQAPGKERELVAAITRSSTSTFYADSVKGRFTISRDNAKNTVYLQMNSLKPEDTAVYYCAARGRPRYYSYAGDYWGQGTQVTVSS | high polyreactivity
30 | QVQLVESGGGLVQAGGSLRLSCAASGFTFGENAMGWYRQAPGKERELVAAITGGTDTNYADSVKGRFTISRDNAKNTVYLQMNSLKPEDTAVYYCAAYVPHFAPLGGGGGYDYWGEGTQVTVSS | low polyreactivity
31 | QVQLVESGGGLVQAGGSLRLSCAASGFTFGENAMGWYRQAPWKERELVAAITSGDGTSYADSVKGRFTISRDNAKNTVYLQMNSLKPEVTAVYDCAADGGDELYYSTYDYWGQGTQVTVSS | low polyreactivity
32 | QVQLVESGGGLVQAGGSLRLSCAASGFTFGGNAMGWYRQAPGKERELVASITSGGSTNYADSVKGRFTISRDNAKNTVYLQMNSLKPEDTAVYYCAAARTGRARRHFDYWGQGTQVTVSS | low polyreactivity
33 | QVQLVESGGGLVQAGGSLRLSCAASGFTFGGYAMGWYRQAPGKERELVAAISQSGGRTYYADSVKGRFTISRDHAMNTVDLQMISLKPEDTAVYYCAKPSTTYYQRGDYWGQGTQVTVSS | high polyreactivity
34 | QVQLVESGGGLVQAGGSLRLSCAASGFTFGGYAMGWYRQAPGKERELVAAITWSGGTTYYADSVKGRFTISRDNAKNTVYLQMNSLKPEDTAVYYCAAESTLPIIDRDDYWGQGSQVTVSS | low polyreactivity
35 | QVQLVESGGGLVQAGGSLRLSCAASGFTFGIYAMGWYRQAPGKERELVAAINVSDGSTYYADSVKGRFTISRDNAKNTVYLQMNILKPEDTAVYYCAAYLYVTIYTSYREYDYWGQGTQVTVSS | low polyreactivity
36 | QVQLVESGGGLVQAGGSLRLSCAASGFTFGLYAMGWYRQAPGKERELVASITWSGGSTYYADSVKGRFTISRDNAKNTVYLQMNSLKPEDTAVYDCAKRLYLITWAASSADDYWGQGTQVTVSS | low polyreactivity
37 | QVQLVESGGGLVQAGGSLRLSCAASGFTFGLYAMGWYRQAPGKERELVAVISSSGGSTYDADSVKGRFTISRDNAKNTVYLQMNSLKPEETAVYYCAAEWHDYKFDVTYDYWGQGTQVTVSS | low polyreactivity
38 | QVQLVESGGGLVQAGGSLRLSCAASGFTFGNNAMGWYRKAPGKERELVAAISKRGSSTYYADSVKGRFTISRDNAKNTVYLQMNSLKPEDTAVYYCAAEGRRTRYYYWGQGTQVTVSS | high polyreactivity
39 | QVQLVESGGGLVQAGGSLRLSCAASGFTFGNYAMGWYRQAPGKERELVAAISSRGGSTYYADSVKGRFTISRDNAKNSVYLQMNSLKPEDTAVYYCNALRLEVDMGYWGQGTQITVSS | high polyreactivity
40 | QVQLVESGGGLVQAGGSLRLSCAASGFTFGNYAMGWYRQAPGKERELVAAISSRGGSTYYADSVKGRFTISRDNAKNTVYLQMNSLKPEDTAVYYCNALRLEVDMGYWGQGTQITVSS | high polyreactivity
41 | QVQLVESGGGLVQAGGSLRLSCAASGFTFGPKAMGWYRQAPVKERELVAAITFRGDSTYYADSVKVRFTISRDYAKNTVYLQMNCLKPEDTAVYYCATHDRWHHRSLPYEYWGQGTQVTVSS | low polyreactivity
42 | QVQLVESGGGLVQAGGSLRLSCAASGFTFGPNTMGWYRQAPGKERELVAAISARGGRTYYADSVKGRFTISRDNAKNTVYLQMNSLKPEDTAVYYCAAPGYVRTGVTYGGYYWGQGTQVTVSS | high polyreactivity
43 | QVQLVESGGGLVQAGGSLRLSCAASGFTFGPYAMGWYRQAPGKERELVAASSQSGGRTSYADSVKGRFTISRDNAKNTVYLPMNSLKPEDTAVYYCAKRAYGYRSIYRMDYWGQGTQVTVSS | high polyreactivity

Source: the nanobody polyreactivity screen of Harvey et al. (2022)
